Laboratory results from US12060598.

Target: T1, octanoyl-ACP (octanoyl-acyl carrier protein, E. coli K12 MG1655 ACP), P0A6A8
T1 chain: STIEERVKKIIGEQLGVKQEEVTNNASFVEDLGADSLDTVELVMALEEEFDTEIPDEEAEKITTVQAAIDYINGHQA

B1: CpFatB1.2-M4 (ΔA54, N28S, I65M) (protein)
chain: MGSSHHHHHHSSENLYFQGGGGYAAHRDYHRVRCAGKRWTMFDRKSKRPSMLMDSFGLERVVQDGLVFRQSFSIRSYEICADRTASMETVMNHVQETSLNQCKSIGLLDDGFGRSPEMCKRDLIWVVTRMKIMVNRYPTWGDTIEVSTWLSQSGKIGMGRDWLISDCNTGEILVRATSVYAMMNQKTRRFSKLPHEVRQEFAPHFLDSPPAIEDNDGKLQKFDVKTGDSIRKGLTPGWYDLDVNQHVSNVKYIGWILESMPTEVLETQELCSLTLEYRRECGRDSVLESVTSMDPSKVGDRFQYRHLLRLEDGADIMKGRTEWRPKNAGTNGAISTGKT
  Km (DTNB thioesterase assay): the Km remained relatively low
  Vmax (DTNB thioesterase assay), fold relative to CpFatB1.2: 15.7 fold increase in Vmax over CpFatB1.2
